Experimental data reported in patent US8440629B2, “Cyclic receptor-associated protein (RAP) peptides” (Raptor Pharmaceuticals Inc., priority 2007, dated 2013).

Key:
rhLRP1 cluster II = target: T1, rhLRP1 cluster II (Homo sapiens, UniProt Q07954); experiment: Solid phase binding assay of RAP peptides; details: for Kd: calcium-dependent binding, EDTA-subtracted, read-out: Kd / binding affinity
T1 construct: rhLRP1 cluster II (aa 786-1165, C-terminal Fc, 1 μg); purchased R&D Systems; host or cells: NS0
T1 sequence (Q07954 786-1165): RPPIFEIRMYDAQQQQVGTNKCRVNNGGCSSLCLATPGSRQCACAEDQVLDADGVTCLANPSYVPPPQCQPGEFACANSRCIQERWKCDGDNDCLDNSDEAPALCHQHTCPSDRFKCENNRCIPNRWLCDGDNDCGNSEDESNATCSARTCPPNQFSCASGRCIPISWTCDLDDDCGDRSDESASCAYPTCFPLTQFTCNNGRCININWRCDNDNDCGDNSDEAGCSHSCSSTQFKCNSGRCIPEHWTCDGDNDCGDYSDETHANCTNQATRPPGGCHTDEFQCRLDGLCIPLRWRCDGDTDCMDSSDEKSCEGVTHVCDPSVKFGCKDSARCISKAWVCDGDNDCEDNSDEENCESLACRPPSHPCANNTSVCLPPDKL
Procedure: Solid phase binding assays were carried out as follows. Recombinant murine VLDLR ectodomain (aa 1-798, C-terminal hexahistidine, 1 μg) or rhLRP1 cluster II (aa 786-1165, C-terminal Fc, 1 μg) were bound to Nunc Maxisorp™ 96-well plates in TBS pH 8 supplemented with 5 mM CaCl2 (TBSC) overnight at 4° C. Wells were washed with TBSC and then blocked with TBSC containing 2% BSA. Peptides were then incubated with the immobilized receptor at a range of concentrations for 2 hours in the above blocking buffer supplemented with 0.05% Tween-20 at room temperature. Identical binding reactions were done in the presence of 50 mM EDTA to provide a measure of non-specific binding. Control wells contained no added peptide. Additional controls established absence of cross-reactivity between antibodies and receptors. Wells were washed with TBSTC and bound peptides detected with streptavidin-HRP (Pierce) or polyclonal anti-RAP (1:1,000, Raptor Pharmaceutical). Binding of the anti-RAP polyclonal antibody to test peptides was qualitatively confirmed by Western blotting (data not shown). Excess streptavidin-HRP or primary antibody was removed and wells washed before incubation with the secondary antibody, when necessary, HRP-conjugated goat anti rabbit IgG (Bio-Rad). Color was developed using TMB reagents (BioRad). Absorption at 450 nm was measured with a microplate spectrophotometer (Molecular Devices). Absorption obtained in the presence of EDTA was subtracted from absorption obtained in the presence of calcium prior to analysis. Data were plotted and Kd values derived by non-linear regression with the assumption of single-site binding (GraphPad Prism).
The binding affinity of the peptides for LRP1 and VLDLR, another receptor in the LDLR family, was measured as follows. NS0-expressed and purified hrLRP1 or mVLDLR (R&D Systems) were use to coat wells in 96-well plates. Various dilutions of the test peptides were incubated with the immobilized receptors in the presence and absence of 50 mM EDTA in triplicate. Bound peptides were detected with streptavidin-HRP after extensive washing. Binding values measured in the presence of EDTA were subtracted from values measured in the absence of EDTA in order to determine calcium-dependent binding levels. Corrected values were plotted and fitted by non-linear regression with the assumption of a single-binding site using GraphPad Prism.

MAT CR23 [1] = target: T2, MAT CR23 (Homo sapiens, UniProt Q9Y5Y6); experiment: Solid phase binding assay; details: 80 nM ligand, FIG. 7
T2 construct: made in house; host or cells: E. coli BL21(DE3) CodonPlus-RIPL, pET30(+)a
T2 sequence (Q9Y5Y6 487-566): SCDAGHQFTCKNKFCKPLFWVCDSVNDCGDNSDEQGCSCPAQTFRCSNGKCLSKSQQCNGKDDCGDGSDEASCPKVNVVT
Procedure: (§1) All expression constructs were sequenced to verify insert sequences and the junctions with the expression vector. Each plasmid was then used to transform BL21(DE3) CodonPlus-RIPL™ cells (Stratagene). Expression of the CR proteins was induced in logarithmic growth-phase cells grown in LB supplemented with 34 μg/mL chloramphenicol, 12.5 μg/mL tetracycline and 15 μg/mL kanamycin by addition of 2 mM IPTG, followed by reduction in incubator temperature to 32° C. and incubation for 4 hours with agitation at […]. Cells were pelleted and resuspended, at 3.5% of the initial culture volume in 10 mM Tris-HCl pH 8, 100 mM NaH2PO4, 8M Urea. Resuspended cells were then frozen in liquid nitrogen, rapidly thawed to 37° C. and sonicated for 10 seconds at an amplitude setting of 60 using a Cole-Parmer CP-130 ultrasonic processor connected to a 3 mm probe. This procedure was repeated three times to effect complete lysis of the cells. Lysates were clarified by spinning twice at 10,000×g in a Sorvall RC-5 centrifuge for 20 minutes at 15° C. Ni-NTA columns (Qiagen Superflow™, 1.5 mL packed bed) were used to purify the CR proteins. Briefly, the resin was equilibrated with two column volumes of lysis buffer. The clarified lysate was then supplemented to 20 mM with imidazole and incubated with the equilibrated Ni-NTA resin overnight at 4° C. The flow-through was discarded. Columns were washed once with one column volume of lysis buffer and then three times with one column volume of TBS pH 8 supplemented with 20 mM imidazole. CR-loaded beads were then removed from the column and CR proteins eluted by incubating at room temperature for 30 minutes with one column volume of the same buffer containing 200 mM imidazole. This step was repeated once and the eluates pooled. Eluted CR protein solutions were then supplemented to 2 M urea, 10 mM CaCl2 and 5 mM DTT. Purified, denatured CR protein solutions were transferred to 3,500 MWCO Slide-A-Lyzer™ (Pierce) cassettes and sequentially dialyzed against a 200-fold excess of 50 mM Tris-HCl pH 8.5, 10 mM CaCl2, 1 mM reduced glutathione, 0.5 mM oxidized glutathione at room temperature overnight and then against TBS supplemented with 5 mM CaCl2 at 4° C. overnight. Protein concentrations were determined by Bradford assay and purity confirmed by SDS-PAGE with Coomassie Brilliant Blue staining.
(§2) Purified, refolded CR protein (1 μg) was bound to Nunc Maxisorp™ 96-well plates in TBS pH 8 supplemented with 5 mM CaCl2 (TBSC) overnight at 4° C. Wells were washed with TBSC and then blocked with TBSC containing 2% bovine serum albumin (BSA). RAP ligands were then incubated with the immobilized receptor at a range of concentrations for 2 hours in the above blocking buffer supplemented with 0.05% Tween-20 at room temperature. Control wells contained no added ligand. As an additional control, to determine whether the absence of calcium affected binding, 10 mM EGTA was included in the incubation medium for some samples. Wells were washed with TBSTC and bound ligands detected with polyclonal anti-RAP (BP41/42, 1:1,000, BioMarin). Excess primary antibody was removed and wells washed before incubation with the secondary antibody, HRP-conjugated goat anti rabbit IgG (Bio-Rad). After washing, TMB substrate solutions (Bio-Rad) were added to detect HRP. Color development was stopped with 1N HCl. Absorption at 450 nm was measured with a microplate spectrophotometer (Molecular Devices). Data were plotted and Kd values derived by non-linear regression with the assumption of single-site binding (GraphPad Prism).
(§3) From the large number of CR pairs with unique combinations of amino acids at A, C, A′ and C′ within the calcium-binding loop of each CR, CR pairs or triplets were selected to test their binding to RAP d3 (FIG. 2). An additional pair derived from the FDC-8D6 protein was tested, designated 8D6 CR12, having the sequence ([…]) (SEQ ID NO: 91). […]

MAT CR12 = target: T3, MAT CR12 (Homo sapiens, UniProt Q9Y5Y6); experiment: Solid phase binding assay; details: 80 nM ligand, FIG. 7
T3 construct: termed MAT CR12 (ST14 CR12), amino acids 452-524; made in house; host or cells: E. coli BL21(DE3) CodonPlus-RIPL, pET30(+)a
T3 sequence (Q9Y5Y6 452-524): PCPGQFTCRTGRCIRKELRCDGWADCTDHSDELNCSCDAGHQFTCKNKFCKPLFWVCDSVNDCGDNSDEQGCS
Procedure: as §1, §2, §3

the other CR pairs = experiment: Binding at 80 nM to fourteen CR pairs or triplets (FIG. 7); parameters: species or system human; details: 80 nM ligand
Procedure: RAP d3, MegaRAP1 d3, VRAP2 d3, MatRAP1 d3 and MatRAP2 d3 were each incubated at 80 nM concentrations with LRP1 CR3-5, LRP6 CR12, LRP6 CR23, LRP6 CR1-3, LRP2 CR89, LRP2 CR2728, LRP2 CR3031, LRP2 CR3435, LRP2 CR34-36, VLDLR CR78, VLDLR CR6-8, MAT CR12, MAT CR23 and MAT CR34. Samples were tested twice, in duplicate, and values combined. Means and standard deviations were then calculated. Blank values obtained from wells incubated in the absence of ligand were used to correct absorbance data.
Purified, refolded CR protein (1 μg) was bound to Nunc Maxisorp™ 96-well plates in TBS pH 8 supplemented with 5 mM CaCl2 (TBSC) overnight at 4° C. Wells were washed with TBSC and then blocked with TBSC containing 2% bovine serum albumin (BSA). RAP ligands were then incubated with the immobilized receptor at a range of concentrations for 2 hours in the above blocking buffer supplemented with 0.05% Tween-20 at room temperature. Control wells contained no added ligand. […] Wells were washed with TBSTC and bound ligands detected with polyclonal anti-RAP (BP41/42, 1:1,000, BioMarin). […] Absorption at 450 nm was measured with a microplate spectrophotometer (Molecular Devices). […]
The apparent dissociation constant for binding of VRAP1 d3 to VLDLR CR78 was determined to be 44±9 nM. […]

MAT CR23 [2] = target: T2, MAT CR23; experiment: Binding of sequentially-truncated MatRAP1 (FIG. 9)
Procedure: as §2, with “Prism). […]” for “Prism).”

B1: mRAPcko: mRAPc with the mutations K256A and K270E (peptide)
peptide: GGSGGCGFREELKHFEAKIEAHNHYQKQLEIAHEELRHAESVGDGERVSRSREKHALLEGRTKELGYTVKKHLQDLSGGC
modifications: N-terminal biotin; intramolecular disulfide bond between C241 and C315 (otherwise identical to mRAPc)
notes: mRAPc with the mutations K256A and K270E
affinity (in words) (rhLRP1 cluster II): no measurable affinity

B2: mRAP: linearized control of mRAPc, both cysteines substituted with serines (SEQ ID NO: 107) (peptide)
chain: SGFREELKHFEAKIEKHNHYQKQLEIAHEKLRHAESVGDGERVSRSREKHALLEGRTKELGYTVKKHLQDLSGGS
affinity (in words) (rhLRP1 cluster II): no measurable affinity

B3: MatRAP1: RAP d3 variant selected on MAT CR23: E251G, K256R, K270W (protein)
chain: LDRLRRVSHQGYSTEAEFEEPRVIDLWDLAQSANLTDKELEAFREELKHFGAKIERHNHYQKQLEIAHEWLRHAESVGDGERVSRSREKHALLEGRTKELGYTVKKHLQDLSGRISRAR
binding at 80 nM (in words) (MAT CR23 [1]): bound
binding at 80 nM (in words) (MAT CR12): bound
binding at 80 nM to the other CR pairs (in words) (the other CR pairs): not appreciably

B4: mRAp-8c: cyclic RAP peptide, amino acids 246 to 312, E246C, L247G, L311G, S312C (SEQ ID NO: 100) (protein)
chain: CGKHFEAKIEKHNHYQKQLEIAHEKLRHAESVGDGERVSRSREKHALLEGRTKELGYTVKKHLQDGC
modifications: chains of the parent or of the whole protein
Kd (rhLRP1 cluster II): 4 to 6 nM

B5: MatRAP2: RAP d3 variant selected on MAT CR34: S232P, E239G, E246G, E251L, K256P, I266T, A267V, H268R, K270P, H273Y, R287H, H290Y, K298R, S312F (protein)
chain: LDRLRRVSHQGYSTEAEFEEPRVIDLWDLAQPANLTDKGLEAFREGLKHFLAKIEPHNHYQKQLETVREPLRYAESVGDGERVSRSHEKYALLEGRTRELGYTVKKHLQDLFGRISRAR
binding at 80 nM (in words) (MAT CR23 [1]): bound
binding at 80 nM (in words) (MAT CR12): bound
binding at 80 nM to the other CR pairs (in words) (the other CR pairs): not appreciably

B6: MatRAP1 N-42: MatRAP1 with 42 amino acids removed from the N-terminus (protein)
chain: FREELKHFGAKIERHNHYQKQLEIAHEWLRHAESVGDGERVSRSREKHALLEGRTKELGYTVKKHLQDLSGRISRAR
increase in binding affinity over the full-length d3 variant (MAT CR23 [2]): 3 fold

B7: Heptide: cyclic RAP peptide, amino acids 246 to 313, E246C, L247G, G280A, L311A, S312C (SEQ ID NO: 103) (protein)
chain: CGKHFEAKIEKHNHYQKQLEIAHEKLRHAESVGDAERVSRSREKHALLEGRTKELGYTVKKHLQDACG
modifications: chains of the parent or of the whole protein
Kd (rhLRP1 cluster II): ~3.5 nM
